In the test the target is hFGFR1c and hKLB co-expressed on HEK293 cells (human) (UniProt P11362). Description: cell-based or functional assay.

For the substance REGN4366 (bispecific antibody), the % activation, SRE-luciferase reporter, normalized against soluble FGF21 is 19%.

The values are drawn from US20250171545A1.
